Test results published in patent US8765433B2, “Alcohol dehydrogenases (ADH) useful for fermentive production of lower alkyl alcohols” (Butamax Advanced Biofuels LLC, priority 2009, dated 2014).

Legend:
Format in all cases: biochemical
[1] = ADH activity assays of cell extracts and purified proteins; details: cell extracts or purified protein, initial experiments
Method: (§1) As a routine practice, the crude extracts and purified proteins were assayed for butanol oxidation activity, in order to ensure that the recombinant proteins were active throughout the purification process. […] Alcohol oxidation activities were carried out in 50 mM sodium phosphate buffer at pH 8.8 and aldehyde reduction reactions were assayed in 190 mM potassium phosphate buffer at pH 7.0. Depending on the nature of reaction being carried out, the enzyme and cofactor stocks were diluted in the reaction buffers at the respective pHs. Either buffer or cell extract prepared from the proprietary E. coli strain (with no ADH plasmid) was used as the negative control for assays with purified protein and cell-free extracts, respectively.
(§2) In initial experiments, there were insufficient levels of protein expression with EhADH1 and RpADH8. […] It is believed that one of skill in the art could further optimize expression and assay conditions for these candidates. Sufficient amounts of active protein could be purified with all other enzymes for which data are presented. […]

[2] = Cofactor specificity in isobutyraldehyde reduction reactions; details: for COFACTOR PREFERENCE: isobutyraldehyde reduction, NADH or NADPH as cofactor
Method: as §1, §2

[3] = Isobutanol oxidation assay; details: Table 8
Method: as §1
Kinetic constants of the ADH enzymes were calculated and compared to identify those candidate ADH enzymes with the most desirable properties for the conversion of isobutyraldehyde to isobutanol in the last step of the engineered pathway for isobutanol production. The assays for determining the kinetic constants were carried out using initial rates from the assays described above. […] The concentration of a given enzyme was such that it was conducive for the measurement of initial velocities over a 1-min time course. For each enzyme, Michaelis-Menten plots were generated with a broad range of substrate concentrations. Rough estimates of KM were obtained, based on which the assays were redesigned so as to use substrate concentrations in the range 0.5 to 10 times the KM value, to be able to obtain the appropriate kinetic constants. […] When calculating the KI for isobutanol, the same reactions were carried out in the presence of varying concentrations of isobutanol (generally 0-535 mM) in the reaction (see FIG. 7, for example). Reactions with isobutanol substrate were performed at 30° C. in 50 mM Sodium phosphate buffer, pH 8.8, containing 7.5 mM NAD. The Enzyme kinetics module (Version 1.3) of SigmaPlot 11 (Systat Software, Inc.) was used to fit data to Michaelis-Menten equations and calculate the kinetic constants. The kcat/KM is derived from the individual numbers of kcat and KM and not an experimentally determined value. The ratios of the KM, KI, and kcat/KM for each candidate enzyme as compared to the same parameter for SadB are given in Table 9.

[4] = Semi-physiological time-course assay with and without 321 mM isobutanol
Source text: The ideal way to characterize and compare various ADH candidates would be to calculate and compare the full set of kinetic constants, i.e., kcat values for aldehyde reduction and alcohol oxidation, KM values for isobutyraldehyde, isobutanol, NAD(P) and NAD(P)H, and KI values for isobutyraldehyde and isobutanol. A detailed characterization for numerous candidates would require considerable expenditure of time, effort and money. Thus, a qualitative assay was developed to allow for quick and efficient comparison of several candidates. A semi-physiological assay was designed to compare the performance of various enzymes. The assays entail the initiation of all reactions with a constant amount of each enzyme. […] Each reaction's time course was followed for 10 min by measuring the decrease in absorbance at 340 nm, as the reaction proceeds towards equilibrium. An enzyme with a high kcat, would drive the reaction towards equilibrium faster than an enzyme with a lower kcat. A parallel assay was also carried out under identical conditions, but with the inclusion of 321 mM isobutanol (24 g/L) in the reaction. An enzyme that is relatively uninhibited by this concentration of isobutanol would have a time course that closely mimics the time course in the absence of isobutanol.

B1: RpADH8: Rana perezi ADH8, SEQ ID NO: 28 (protein, listed as Rama perezi)
chain: MCTAGKDITCKAAVAWEPHKPLSLETITVAPPKAHEVRIKILASGICGSDSSVLKEIIPSKFPVILGHEAVGVVESIGAGVTCVKPGDKVIPLFVPQCGSCRACKSSNSNFCEKNDMGAKTGLMADMTSRFTCRGKPIYNLVGTSTFTEYTVVADIAVAKIDPKAPLESCLIGCGFATGYGAAVNTAKVTPGSTCAVFGLGGVGFSAIVGCKAAGASRIIGVGTHKDKFPKAIELGATECLNPKDYDKPIYEVICEKTNGGVDYAVECAGRIETMMNALQSTYCGSGVTVVLGLASPNERLPLDPLLLLTGRSLKGSVFGGFKGEEVSRLVDDYMKKKINVNFLVSTKLTLDQINKAFELLSSGQGVRSIMIY
[1]
  ADH activity: failed to detect ADH activity

B2: BtARD: Bos Taurus Aldehyde Reductase, SEQ ID NO: 27 (protein, listed as Bos taurus)
chain: MAASCILLHTGQKMPLIGLGTWKSDPGQVKAAIKYALSVGYRHIDCAAIYGNETEIGEALKENVGPGKLVPREELFVTSKLWNTKHHPEDVEPALRKTLADLQLEYLDLYLMHWPYAFERGDSPFPKNADGTIRYDSTHYKETWRALEALVAKGLVRALGLSNFNSRQIDDVLSVASVRPAVLQVECHPYLAQNELIAHCQARNLEVTAYSPLGSSDRAWRDPEEPVLLKEPVVLALAEKHGRSPAQILLRWQVQRKVSCIPKSVTPSRILENIQVFDFTFSPEEMKQLDALNKNLRFIVPMLTVDGKRVPRDAGHPLYPFNDPY
[1]
  ADH activity: no detectable activity

B3: McADH: Mucor circinelloides ADH, SEQ ID NO: 39 (protein)
chain: MSEETFTAWACKSKSAPLEPMEMTFCHWDDDMVQMDVICCGVCGTDLHTVDEGWGPTEFPCVVGHEIIGNVTKVGKNVTRIKVGDRCGVGCQSASCGKCDFCKKGMENLCSTHAVWTFNDRYDNATKDKTYGGFAKKWRGNQDFVVHVPMDFSPEVAASFLCGGVTTYAPLKRYGVGKGSKVAVLGLGGLGHFGVQWAKAMGAEVVAFDVIPDKVDDAKKLGCDDYVLMQKEEQMEPHYNTFTHILATKIVNKCWDQYFKMLKNNGIFMLCDIPEVPLSGMSAFVMAGKQLTIAGTFIGSPSVIQECLDFAAKHNVRTWVNTFPMEKINEAFEFVRQAKPRYRAVVMN
modifications: Mucor circinelloides
[2]; Table 8
  Other enzymatic properties and cofactor preference: NADH specific
[2]
  COFACTOR PREFERENCE: NADH
[3]
  conversion of isobutanol to isobutyraldehyde: No measureable

B4: VpADH: Vanderwaltozyma polyspora DSM 70294 ADH, SEQ ID NO: 38 (protein)
chain: MSYPEKFQGIGITNREDWKHPKKVTFEPKQFNDKDVDIKIEACGVCGSDVHCAASHWGPVAEKQVVGHEIIGRVLKVGPKCTTGIKVGDRVGVGAQAWSCLECSRCKSDNESYCPKSVWTYSIPYIDGYVSQGGYASHIRLHEHFAIPIPDKLSNELAAPLLCGGITVYSPLLRNGCGPGKKVGIVGIGGIGHMGLLFAKGMGAEVYAFSRTHSKEADAKKLGADHFIATLEDKDWTTKYFDTLDLLVICASSLTDINFDELTKIMKVNTKIISISAPAADEVLTLKPFGLIGVTIGNSAIGSRREIEHLLNFVAEKDIKPWVETLPVGEAGVNEAFERMDKGDVKYRFTLVDFDKEFGN
modifications: Vanderwaltozyma polyspora DSM 70294
[1]
  ADH activity: no detectable activity

B5: BiADH: ADH of Beijerinckia indica subsp. Indica ATCC 9039, SEQ ID NO: 31 (protein, listed as Beijerickia indica)
chain: MKALVYRGPGQKLVEERQKPELKEPGDAIVKVTKTTICGTDLHILKGDVATCKPGRVLGHEGVGVIESVGSGVTAFQPGDRVLISCISSCGKCSFCRRGMFSHCTTGGWILGNEIDGTQAEYVRVPHADTSLYRIPAGADEEALVMLSDILPTGFECGVLNGKVAPGSSVAIVGAGPVGLAALLTAQFYSPAEIIMIDLDDNRLGLAKQFGATRTVNSTGGNAAAEVKALTEGLGVDTAIEAVGIPATFELCQNIVAPGGTIANVGVHGSKVDLHLESLWSHNVTITTRLVDTATTPMLLKTVQSHKLDPSRLITHRFSLDQILDAYETFGQAASTQALKVIISMEA
[2]
  COFACTOR PREFERENCE: NADH
[4]; 1 ug enzyme, 1 mM isobutyraldehyde, 200 μM NADH, 10 min
  kcat for the isobutyraldehyde reduction reaction (inferred from time courses, FIG. 1): likely to have the highest kcat

B6: ScADH6: Saccharomyces cerevisiae ADH6 alcohol dehydrogenase, SEQ ID NO: 22 (protein, listed as Saccharomyces cerevisiae)
chain: MSYPEKFEGIAIQSHEDWKNPKKTKYDPKPFYDHDIDIKIEACGVCGSDIHCAAGHWGNMKMPLVVGHEIVGKVVKLGPKSNSGLKVGQRVGVGAQVFSCLECDRCKNDNEPYCTKFVTTYSQPYEDGYVSQGGYANYVRVHEHFVVPIPENIPSHLAAPLLCGGLTVYSPLVRNGCGPGKKVGIVGLGGIGSMGTLISKAMGAETYVISRSSRKREDAMKMGADHYIATLEEGDWGEKYFDTFDLIVVCASSLTDIDFNIMPKAMKVGGRIVSISIPEQHEMLSLKPYGLKAVSISYSALGSIKELNQLLKLVSEKDIKIWVETLPVGEAGVHEAFERMEKGDVRYRFTLVGYDKEFSD
[2]; Table 7
  Other enzymatic properties and cofactor preference: NADPH specific
[2]
  COFACTOR PREFERENCE: NADPH
[4]; 321 mM isobutanol (24 g/L)
  inhibition by isobutanol (inferred from time courses, FIG. 1): likely to be the least inhibited

B7: EhADH1: Entamoeba histolytica ADH1, SEQ ID NO: 30 (protein, listed as Entamoeba histolytica)
chain: MKGLAMLGIGRIGWIEKKIPECGPLDALVRPLALAPCTSDTHTVWAGAIGDRHDMILGHEAVGQIVKVGSLVKRLKVGDKVIVPAITPDWGEEESQRGYPMHSGGMLGGWKFSNFKDGVFSEVFHVNEADANLALLPRDIKPEDAVMLSDMVTTGFHGAELANIKLGDTVCVIGIGPVGLMSVAGANHLGAGRIFAVGSRKHCCDIALEYGATDIINYKNGDIVEQILKATDGKGVDKVVIAGGDVHTFAQAVKMIKPGSDIGNVNYLGEGDNIDIPRSEWGVGMGHKHIHGGLTPGGRVRMEKLASLISTGKLDTSKLITHRFEGLEKVEDALMLMKNKPADLIKPVVRIHYDDEDTLH
[1]
  ADH activity: failed to detect ADH activity
